What was measured:
[1] = molecular target: SARS-CoV-2 spike protein on pseudotyped lentivirus (Wuhan Reference Pseudovirus) (SARS-CoV-2, UniProt P0DTC2 14-1273); experiment: cell-based or functional assay
[2] = molecular target: T1, recombinant SARS-CoV-2 RBD with C-terminal AviTag (SARS-CoV-2, UniProt P0DTC2 319-541); experiment: BLI, biotinylated RBD on streptavidin biosensors; OR: over-range [Cont. 3]
[3] = molecular target: T1, recombinant SARS-CoV-2 RBD with …; experiment: ELISA, competition with coated ACE2-Fc for RBD [Cont. 3]

B1: PP828 MBP-R5C-B2-H6 (VHH)
VHH: QVQLVESGGGLVQPGGSLRLSCAASGSIFSLNWVHWFRQAPGKSREGVASINSGGHADYSDSVKGRFTISRDNAKNTVYLQMNSLKPEDTAVYYCAAGPYGAYNFNSWGQGTQVTVSS
notes: Form: Monomer
infectivity % under 10 ug/mL VHH treatment [1]: 73.4% | Kd [2]: ~1370 nM | IC50 [3]: 373 nM
